Source: US20250340902A1, “GENE THERAPY FOR BVES-RELATED DISORDERS” (OHIO STATE INNOVATION FOUNDATION, priority 2022, published 2025)

How the values were obtained:
[1] = molecular target: Alpha-1-syntrophin (Mus musculus) (UniProt Q61234); assay: anti-HA co-IP from muscle, MS; CTRL 1
[2] = molecular target: Alpha-sarcoglycan (Mus musculus) (UniProt P82350); assay: anti-HA co-IP from muscle, MS; CTRL 1
[3] = molecular target: Caveolae-associated protein 2 (Mus musculus) (UniProt Q63918); assay: anti-HA co-IP from muscle, MS; CTRL 1
[4] = molecular target: Caveolae-associated protein 3 (Mus musculus) (UniProt Q91VJ2); assay: anti-HA co-IP from muscle, MS; CTRL 1
Caveolae-associated protein 3 (Mus musculus), sequence (Q91VJ2 whole entry): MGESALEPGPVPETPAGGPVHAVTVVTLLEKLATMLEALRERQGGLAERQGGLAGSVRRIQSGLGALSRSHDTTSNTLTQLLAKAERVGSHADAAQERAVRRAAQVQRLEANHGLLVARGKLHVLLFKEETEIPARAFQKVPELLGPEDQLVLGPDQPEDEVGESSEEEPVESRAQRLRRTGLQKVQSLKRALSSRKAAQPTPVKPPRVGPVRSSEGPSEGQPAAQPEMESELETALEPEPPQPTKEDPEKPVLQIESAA

[5] = molecular target: Caveolin-1 (Mus musculus) (UniProt P49817); assay: anti-HA co-IP from muscle, MS; CTRL 1
Caveolin-1 (Mus musculus), sequence (P49817 2-178 limits assumed): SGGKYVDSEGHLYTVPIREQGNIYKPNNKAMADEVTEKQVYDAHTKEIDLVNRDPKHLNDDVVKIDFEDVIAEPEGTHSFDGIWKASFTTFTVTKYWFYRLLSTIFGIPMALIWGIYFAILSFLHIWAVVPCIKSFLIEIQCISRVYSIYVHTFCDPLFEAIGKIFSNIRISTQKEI

[6] = molecular target: Collagen alpha-2(IV) chain (Mus musculus) (UniProt P08122); assay: anti-HA co-IP from muscle, MS; CTRL 1
[7] = molecular target: Cullin-associated NEDD8-dissociated protein 2 (Mus musculus) (UniProt Q6ZQ73); assay: anti-HA co-IP from muscle, MS; CTRL 1
[8] = molecular target: Glypican-1 (Mus musculus) (UniProt Q9QZF2); assay: anti-HA co-IP from muscle, MS; CTRL 1
Glypican-1 (Mus musculus), sequence (Q9QZF2 24-529 limits assumed): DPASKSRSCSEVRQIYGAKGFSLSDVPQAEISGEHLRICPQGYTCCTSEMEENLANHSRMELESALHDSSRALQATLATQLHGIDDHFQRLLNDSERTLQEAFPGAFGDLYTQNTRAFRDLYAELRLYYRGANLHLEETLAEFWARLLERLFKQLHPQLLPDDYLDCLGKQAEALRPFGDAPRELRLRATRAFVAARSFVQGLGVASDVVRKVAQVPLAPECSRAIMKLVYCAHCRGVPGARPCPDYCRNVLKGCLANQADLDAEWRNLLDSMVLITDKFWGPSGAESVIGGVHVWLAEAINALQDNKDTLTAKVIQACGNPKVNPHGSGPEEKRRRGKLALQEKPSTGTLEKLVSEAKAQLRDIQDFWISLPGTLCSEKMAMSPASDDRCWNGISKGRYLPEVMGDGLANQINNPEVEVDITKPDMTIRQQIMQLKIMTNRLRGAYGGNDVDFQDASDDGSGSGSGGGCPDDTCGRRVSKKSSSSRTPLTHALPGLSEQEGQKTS

[9] = molecular target: Protein-cysteine N-palmitoyltransferase HHAT-like protein (Mus musculus) (UniProt Q9D1G3); assay: anti-HA co-IP from muscle, MS; CTRL 1
Protein-cysteine N-palmitoyltransferase HHAT-like protein (Mus musculus), sequence (Q9D1G3 whole entry): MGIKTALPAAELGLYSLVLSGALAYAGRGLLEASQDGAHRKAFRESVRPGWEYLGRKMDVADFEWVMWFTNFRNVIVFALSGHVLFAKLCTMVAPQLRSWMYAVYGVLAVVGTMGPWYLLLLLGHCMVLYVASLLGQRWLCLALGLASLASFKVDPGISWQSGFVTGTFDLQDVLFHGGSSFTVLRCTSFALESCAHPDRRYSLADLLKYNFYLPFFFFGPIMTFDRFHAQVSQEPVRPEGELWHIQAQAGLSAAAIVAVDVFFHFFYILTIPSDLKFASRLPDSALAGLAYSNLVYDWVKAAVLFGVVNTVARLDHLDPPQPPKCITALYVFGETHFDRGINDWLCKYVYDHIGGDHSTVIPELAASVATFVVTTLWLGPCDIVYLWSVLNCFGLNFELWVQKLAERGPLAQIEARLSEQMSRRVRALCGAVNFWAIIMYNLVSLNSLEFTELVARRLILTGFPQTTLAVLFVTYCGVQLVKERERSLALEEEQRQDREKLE

[10] = molecular target: Ribosomal protein S6 kinase alpha-3 (Mus musculus) (UniProt P18654); assay: anti-HA co-IP from muscle, MS; CTRL 1
[11] = molecular target: Unconventional myosin-Ic (Mus musculus) (UniProt Q9WTI7); assay: anti-HA co-IP from muscle, MS; CTRL 1
Vinculin (Mus musculus) = Vinculin (Mus musculus) (UniProt Q64727); assay: anti-HA co-IP from muscle, MS; CTRL 1
[12] = molecular target: 3-ketoacyl-CoA thiolase, mitochondrial (Mus musculus) (UniProt Q8BWT1); assay: anti-HA co-IP from muscle, MS; CTRL 3
[13] = molecular target: Cytoplasmic dynein 1 heavy chain 1 (Mus musculus) (UniProt Q9JHU4); assay: anti-HA co-IP from muscle, MS; CTRL 3
[14] = molecular target: Myosin light chain kinase 2, skeletal/cardiac muscle (Mus musculus) (UniProt Q8VCR8); assay: anti-HA co-IP from muscle, MS; CTRL 3
Myosin light chain kinase 2, skeletal/cardiac muscle (Mus musculus), sequence (Q8VCR8 whole entry): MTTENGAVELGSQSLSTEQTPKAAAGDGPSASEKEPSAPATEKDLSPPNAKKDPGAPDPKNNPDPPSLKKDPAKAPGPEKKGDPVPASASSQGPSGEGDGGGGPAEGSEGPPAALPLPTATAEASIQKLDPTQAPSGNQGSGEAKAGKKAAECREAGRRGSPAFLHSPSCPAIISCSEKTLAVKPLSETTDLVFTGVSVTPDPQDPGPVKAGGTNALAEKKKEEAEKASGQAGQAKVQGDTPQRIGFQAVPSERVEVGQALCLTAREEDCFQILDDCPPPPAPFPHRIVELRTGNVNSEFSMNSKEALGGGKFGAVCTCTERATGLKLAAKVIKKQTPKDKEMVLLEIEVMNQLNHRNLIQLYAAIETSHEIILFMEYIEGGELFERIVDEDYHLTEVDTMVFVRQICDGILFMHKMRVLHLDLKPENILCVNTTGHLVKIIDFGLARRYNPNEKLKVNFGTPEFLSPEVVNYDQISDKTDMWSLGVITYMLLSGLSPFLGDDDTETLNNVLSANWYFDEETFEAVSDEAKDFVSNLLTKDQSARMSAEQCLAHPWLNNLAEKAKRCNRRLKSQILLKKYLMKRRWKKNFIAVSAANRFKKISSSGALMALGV

Nidogen-2 (Mus musculus) = Nidogen-2 (Mus musculus) (UniProt O88322); assay: anti-HA co-IP from muscle, MS; CTRL 3
[15] = molecular target: Perilipin-4 (Mus musculus) (UniProt O88492); assay: anti-HA co-IP from muscle, MS; CTRL 3
Perilipin-4 (Mus musculus), sequence (O88492 whole entry): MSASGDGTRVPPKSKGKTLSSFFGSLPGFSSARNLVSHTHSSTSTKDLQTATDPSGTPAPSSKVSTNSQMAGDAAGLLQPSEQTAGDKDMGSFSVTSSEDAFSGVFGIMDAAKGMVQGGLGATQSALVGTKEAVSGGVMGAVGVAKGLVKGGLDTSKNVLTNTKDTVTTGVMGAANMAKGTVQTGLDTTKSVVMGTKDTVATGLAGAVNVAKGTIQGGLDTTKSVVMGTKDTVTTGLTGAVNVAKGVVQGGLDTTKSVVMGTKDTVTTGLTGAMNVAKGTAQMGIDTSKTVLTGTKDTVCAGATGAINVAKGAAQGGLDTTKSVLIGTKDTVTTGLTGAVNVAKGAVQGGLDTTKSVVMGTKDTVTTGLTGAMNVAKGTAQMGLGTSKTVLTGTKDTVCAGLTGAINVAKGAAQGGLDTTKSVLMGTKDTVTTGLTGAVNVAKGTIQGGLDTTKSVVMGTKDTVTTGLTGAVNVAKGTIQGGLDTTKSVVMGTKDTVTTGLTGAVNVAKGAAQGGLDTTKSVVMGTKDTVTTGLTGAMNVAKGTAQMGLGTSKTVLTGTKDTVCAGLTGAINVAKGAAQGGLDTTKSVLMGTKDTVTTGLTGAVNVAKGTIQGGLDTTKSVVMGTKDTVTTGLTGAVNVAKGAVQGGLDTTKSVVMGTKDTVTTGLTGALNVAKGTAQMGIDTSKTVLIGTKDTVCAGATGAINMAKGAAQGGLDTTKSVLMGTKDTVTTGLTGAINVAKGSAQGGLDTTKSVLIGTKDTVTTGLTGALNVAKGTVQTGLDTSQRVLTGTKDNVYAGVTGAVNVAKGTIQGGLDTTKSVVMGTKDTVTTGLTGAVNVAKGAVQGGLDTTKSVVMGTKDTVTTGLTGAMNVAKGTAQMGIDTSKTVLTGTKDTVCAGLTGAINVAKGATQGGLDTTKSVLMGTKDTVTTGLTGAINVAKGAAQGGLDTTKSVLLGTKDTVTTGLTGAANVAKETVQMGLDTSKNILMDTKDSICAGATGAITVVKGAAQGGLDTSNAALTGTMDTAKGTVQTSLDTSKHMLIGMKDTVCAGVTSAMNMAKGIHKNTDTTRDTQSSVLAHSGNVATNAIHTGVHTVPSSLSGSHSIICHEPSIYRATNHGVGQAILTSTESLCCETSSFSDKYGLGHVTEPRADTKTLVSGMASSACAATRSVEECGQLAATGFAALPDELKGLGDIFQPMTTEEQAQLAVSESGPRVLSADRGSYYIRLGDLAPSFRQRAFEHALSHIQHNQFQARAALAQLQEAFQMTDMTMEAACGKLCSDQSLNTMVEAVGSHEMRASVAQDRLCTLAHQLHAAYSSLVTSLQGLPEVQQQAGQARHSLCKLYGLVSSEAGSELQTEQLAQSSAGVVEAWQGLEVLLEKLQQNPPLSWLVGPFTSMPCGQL

[16] = molecular target: Transcription elongation factor A protein 3 (Mus musculus) (UniProt P23881); assay: anti-HA co-IP from muscle, MS; CTRL 3
[17] = molecular target: Annexin A6 (Mus musculus) (UniProt P14824); assay: anti-HA co-IP from muscle, MS; CTRL 5
Biglycan (Mus musculus) = Biglycan (Mus musculus) (UniProt P28653); assay: anti-HA co-IP from muscle, MS; CTRL 5
[18] = molecular target: Eukaryotic translation initiation factor 5B (Mus musculus) (UniProt Q05D44); assay: anti-HA co-IP from muscle, MS; CTRL 5
Eukaryotic translation initiation factor 5B (Mus musculus), sequence (Q05D44 whole entry, canonical isoform): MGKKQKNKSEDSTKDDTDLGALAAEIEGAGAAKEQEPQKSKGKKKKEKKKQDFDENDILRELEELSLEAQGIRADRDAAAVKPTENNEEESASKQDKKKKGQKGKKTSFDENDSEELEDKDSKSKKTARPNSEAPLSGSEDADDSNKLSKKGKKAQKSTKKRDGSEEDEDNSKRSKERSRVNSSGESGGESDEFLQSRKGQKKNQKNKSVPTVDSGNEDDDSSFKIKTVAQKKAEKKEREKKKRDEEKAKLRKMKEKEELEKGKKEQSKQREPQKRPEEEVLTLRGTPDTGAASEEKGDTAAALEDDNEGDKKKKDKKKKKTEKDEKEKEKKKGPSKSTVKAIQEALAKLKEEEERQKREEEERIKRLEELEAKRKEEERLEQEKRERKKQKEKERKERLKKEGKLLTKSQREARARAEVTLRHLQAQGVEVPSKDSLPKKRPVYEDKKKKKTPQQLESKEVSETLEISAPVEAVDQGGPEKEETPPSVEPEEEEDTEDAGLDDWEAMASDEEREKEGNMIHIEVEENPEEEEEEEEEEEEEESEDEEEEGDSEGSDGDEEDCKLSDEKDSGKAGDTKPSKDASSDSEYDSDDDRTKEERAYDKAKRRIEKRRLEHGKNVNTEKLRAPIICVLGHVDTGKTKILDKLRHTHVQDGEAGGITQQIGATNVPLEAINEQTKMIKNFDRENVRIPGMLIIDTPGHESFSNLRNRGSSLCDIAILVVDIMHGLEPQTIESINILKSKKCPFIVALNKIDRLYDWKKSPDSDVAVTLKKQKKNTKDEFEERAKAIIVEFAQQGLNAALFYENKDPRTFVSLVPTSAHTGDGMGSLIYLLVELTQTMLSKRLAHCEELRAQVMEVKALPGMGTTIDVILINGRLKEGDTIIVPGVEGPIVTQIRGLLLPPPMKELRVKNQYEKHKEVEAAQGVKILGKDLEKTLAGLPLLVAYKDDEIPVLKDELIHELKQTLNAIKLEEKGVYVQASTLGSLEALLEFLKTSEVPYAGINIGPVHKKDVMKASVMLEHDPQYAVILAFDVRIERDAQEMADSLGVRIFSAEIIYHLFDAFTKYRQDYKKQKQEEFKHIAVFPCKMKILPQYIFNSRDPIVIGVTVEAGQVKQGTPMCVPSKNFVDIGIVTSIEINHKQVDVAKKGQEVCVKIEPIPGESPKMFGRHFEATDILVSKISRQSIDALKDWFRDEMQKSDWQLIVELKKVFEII

[19] = molecular target: Phosphorylase b kinase regulatory subunit alpha, skeletal muscle isoform (Mus musculus) (UniProt P18826); assay: anti-HA co-IP from muscle, MS; CTRL 5
[20] = molecular target: Spectrin alpha chain, non-erythrocytic 1 (Mus musculus) (UniProt P16546); assay: anti-HA co-IP from muscle, MS; CTRL 5
[21] = molecular target: Spectrin beta chain, non-erythrocytic 1 (Mus musculus) (UniProt Q62261); assay: anti-HA co-IP from muscle, MS; CTRL 5
[22] = molecular target: Striated muscle-specific serine/threonine-protein kinase (Mus musculus) (UniProt Q62407); assay: anti-HA co-IP from muscle, MS; CTRL 5
[23] = molecular target: Dystrophin (Mus musculus) (UniProt P11531); assay: anti-HA co-IP from muscle, MS; CTRL 6
[24] = molecular target: Sodium/potassium-transporting ATPase subunit alpha-2 (Mus musculus) (UniProt Q6PIE5); assay: anti-HA co-IP from muscle, MS; CTRL 6

Alpha-sarcoglycan (Mus musculus), sequence (P82350 24-387 limits assumed): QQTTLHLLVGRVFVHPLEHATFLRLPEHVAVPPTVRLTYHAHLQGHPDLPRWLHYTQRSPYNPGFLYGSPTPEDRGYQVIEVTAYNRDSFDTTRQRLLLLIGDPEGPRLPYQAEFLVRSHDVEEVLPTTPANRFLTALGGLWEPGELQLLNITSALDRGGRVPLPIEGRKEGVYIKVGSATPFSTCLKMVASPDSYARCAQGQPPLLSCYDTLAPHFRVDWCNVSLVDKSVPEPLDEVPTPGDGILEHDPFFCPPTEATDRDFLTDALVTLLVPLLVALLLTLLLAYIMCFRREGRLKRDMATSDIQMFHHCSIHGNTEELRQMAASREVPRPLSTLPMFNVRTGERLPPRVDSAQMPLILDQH

AAV9-BVES-HA (IP-MS count) [1]: 11
AAV9-BVES-HA (IP-MS count) [2]: 5
AAV9-BVES-HA (IP-MS count) [3]: 12
AAV9-BVES-HA (IP-MS count) [4]: 11
AAV9-BVES-HA (IP-MS count) [5]: 8
AAV9-BVES-HA (IP-MS count) [6]: 5
AAV9-BVES-HA (IP-MS count) [7]: 16
AAV9-BVES-HA (IP-MS count) [8]: 11
AAV9-BVES-HA (IP-MS count) [9]: 5
AAV9-BVES-HA (IP-MS count) [10]: 20
AAV9-BVES-HA (IP-MS count) [11]: 7
AAV9-BVES-HA (IP-MS count) (Vinculin (Mus musculus)): 5
AAV9-BVES-HA (IP-MS count) [12]: 9
AAV9-BVES-HA (IP-MS count) [13]: 12
AAV9-BVES-HA (IP-MS count) [14]: 9
AAV9-BVES-HA (IP-MS count) (Nidogen-2 (Mus musculus)): 12
AAV9-BVES-HA (IP-MS count) [15]: 11
AAV9-BVES-HA (IP-MS count) [16]: 12
AAV9-BVES-HA (IP-MS count) [17]: 17
AAV9-BVES-HA (IP-MS count) (Biglycan (Mus musculus)): 16
AAV9-BVES-HA (IP-MS count) [18]: 14
AAV9-BVES-HA (IP-MS count) [19]: 23
AAV9-BVES-HA (IP-MS count) [20]: 24
AAV9-BVES-HA (IP-MS count) [21]: 19
AAV9-BVES-HA (IP-MS count) [22]: 16
AAV9-BVES-HA (IP-MS count) [23]: 77
AAV9-BVES-HA (IP-MS count) [24]: 41
Substance: human BVES fused with 3xHA tag (from UniProt Q8NE79 1-360)
